Like-named read-outs stand apart in the source and are kept apart here.

Series [1] can be described thus: Influence of L-tyrosine concentration, Km by Lineweaver-Burk plot. The class given is biochemical. The protocol:
(§1) The measuring of the tyrosine hydroxylase activity was conducted according to a method of Husain et al. (Husain et al., J. Invest. Dermatol. 78: 243-252, 1982). Hydroxylation was conducted within an L-Dopa concentration range of 0-30 mM. A standard curve with respect to L-dopa was obtained. Using the standard curve, the amount of L-dopa produced after the reaction was determined. The reaction solution was prepared by adding 100 μM of L-tyrosine, L-dopa of each concentration, 4 mM of ascorbic acid and 100 μl of human tyrosinase into 50 mM Potassium phosphate buffer solution (pH 6.8) to obtain 2.5 ml of the solution. After that, the reaction was conducted at 37° C. for 3 hours. At this time, a reaction was conducted without adding the purified human tyrosinase as a control. The product was subjected to excitation at 360 nm and then was subjected to an emission at 490 nm by a method of Ram et al. (Ram et al., J. Biol. Chem. 267: 23707-23712, 1992). The intensity of the emission was measured. The measured value was converted into the concentration of L-dopa and the enzyme activity was measured. The specific activity with respect to the tyrosine hydroxylase activity of the purified human tyrosinase of the present invention was determined as the created mol number (mmol) of the L-dopa with respect to the amount of the enzyme (μg) per hour.
The concentration of the substrate, L-tyrosine was given in a range of 0.01-1 mM, and the influence of the substrate concentration onto the recombinant human tyrosinase prepared by example 2 was evaluated. It is conducted by the same method of measuring the tyrosine hydroxylase activity explained in the experiment 1. The Km value of the recombinant human tyrosinase according to the present invention was calculated by the Lineweaver-Burk Plot (Lineweaver et al., J. Am, Chem. Soc., 56; 658-666, 1934).

The nature of series [2]: Dopa oxidase activity of human tyrosinase (method of Fling et al., dopachrome at 475 nm). Format: biochemical. The protocol:
(§2) The measurement of the dopa oxidase activity was conducted by the method of Fling et al. (Fling et al. J. Biol. Chem. 238: 2045-2053, 1963). The transformation of L-dopa which was the substrate of dopa oxidase into a brown product of dopachrome by tyrosinase was measured at 475 nm. […] 3 mM of L-dopa was added into 50 mM of tris-HCl buffer solution (pH 7.5) and incubated at 370 for 10 minutes. Then, 30 μl of human tyrosinase was added and the absorbance change was measured at 475 nm for 3 minutes. At this time, the unit of the activity of the enzyme was defined as follows. When 1 μmole of dopachrome was produced for 1 minute, this activity was defined as 1 unit (μmole/min). Specific activity was defined as 1 unit per 1 mg enzyme.

Series [3] is described as follows: Tyrosine hydroxylase activity of human tyrosinase (method of Husain et al., fluorescence of L-dopa formed). Format: biochemical. The settings on record: for Increase of specific tyrosine hydroxylase activity of the His-bind purified enzyme compared to the crude extract: His-bind resin purified vs crude extract. The protocol: as §1
Series [4] can be described thus: Influence of L-dopa concentration, Km by Lineweaver-Burk plot. The class given is biochemical. The following applies: L-dopa 0.05-5 mM. The protocol: as §2, with “Specific activity was defined as 1 unit per 1 mg enzyme.” left out
The concentration of the substrate, L-tyrosine was given in a range of 0.01-1 mM, and the influence of the substrate concentration onto the recombinant human tyrosinase prepared by example 2 was evaluated. […] The Km value of the recombinant human tyrosinase according to the present invention was calculated by the Lineweaver-Burk Plot (Lineweaver et al., J. Am, Chem. Soc., 56; 658-666, 1934).
The concentration of L-dopa, which is another substrate of the human tyrosinase was given in a range of 0.05-5 mM and the influence of the substrate concentration with respect to the recombinant human tyrosinase prepared in example 2 was examined. The dopa oxidase activity is measured by the same method of experiment 2. […]

For series [5] the following is noted: read-out: Km value to L-tyrosine, cited from earlier work.
For series [6] the following is noted: literature value, Spritz et al. 1997; cited from earlier work.
The mark [7] stands for this setting: purification step: His.bind resin chromatography.
Where [8] appears, read: purification step: crude extract.
Where [9] appears, read: purification step: DEAE-Sephacel chromatography.

B1: Recombinant human tyrosinase of example 2 (pET-hTyrosinase(TM-)): Human tyrosinase with C-terminal transmembrane domain (55 amino acids) removed, SEQ ID NO: 2, expressed in E. coli with six … (protein)
chain: MHFPRACVSSKNLMEKECCPPWSGDRSPCGQLSGRGSCQNILLSNAPLGPQFPFTGVDDRESWPSVFYNRTCQCSGNFMGFNCGNCKFGFWGPNCTERRLLVRRNIFDLSAPEKDKFFAYLTLAKHTISSDYVIPIGTYGQMKNGSTPMFNDINIYDLFVWMHYYVSMDALLGGSEIWRDIDFAHEAPAFLPWHRLFLLRWEQEIQKLTGDENFTIPYWDWRDAEKCDICTDEYMGGQHPTNPNLLSPASFFSSWQIVCSRLEEYNSHQSLCNGTPEGPLRRNPGNHDKSRTPRLPSSADVEFCLSLTQYESGSMDKAANFSFRNTLEGFASPLTGIADASQSSMHNALHIYMNGTMSQVQGSANDPIFLLHHAFVDSIFEQWLRRHRPLQEVYPEANAPIGHNRESYMVPFIPLYRNGDFFISSKDLGYDYSYLQDSDPDSFQDYIKSYLEQASRI
modifications: C-terminal His6 tag; Human tyrosinase
As to B1, the “Affinity onto the substrate L-tyrosine, times higher” value in series [1] is on record as no less than 100 times. Further, the Km in series [1] (L-tyrosine 0.01-1 mM, Lineweaver-Burk plot) was found to be 1.32 µM; in series [4], 340 µM. The “Km to L-tyrosine, times lower than Km of earlier tyrosinases” value in series [1] (at the most, vs 0.17 mM, 2.34 μM and 0.2 mM) is “about 130 times”. The “Purification degree (dopa oxidase specific activity relative to crude extract)” value is 46 fold in series [2] (setting [7]) and 1.0 fold in series [2] (setting [8]). Also, the results for the “Specific activity (dopa oxidase)” value in series [2] (setting [7]) and in series [2] (setting [8]) were 807 units/mg and 17.7 units/mg, respectively. The “Total activity (dopa oxidase)” value in series [2] (setting [7]) turned out to be 2977 units; in series [2] (setting [8]), 6200 units. Moreover, the “Specific dopa oxidase activity, times higher than recombinant human tyrosinase of comparative example 1” value in series [2] (vs Korean Patent Application No. 2001-0057379 (comparative example 1)) is recorded as “about 31 times”. In series [2] (vs Korean Patent Application No. 2002-0073728 (comparative example 2)), the “Specific dopa oxidase activity, times higher than recombinant human tyrosinase of comparative example 2” value is “about 1.2 times”. The “Increase of specific tyrosine hydroxylase activity of the His-bind purified enzyme compared to the crude extract” value in series [3] was “about 52 times”. The “Specific activity (tyrosine hydroxylase)” value in series [3] (purification step: His.bind resin chromatography (finally purified), listed as Recombinant human tyrosinase of example 2 (pET-hTyrosinase(TM-))) came to 108.3 ± 2.10 µmol/mg/h; in series [3] (purification step: His.bind resin chromatography (finally purified), listed as recombinant human tyrosinase) it was 108.3 ± 2.10 µmol/mg/h; in series [3] (setting [8]), 2.1 ± 0.05 µmol/mg/h.

B2: Recombinant human tyrosinase of comparative example 2 (pET-hTyr): Recombinant human tyrosinase produced in E. coli with pET-hTyr vector by the method of Korean Patent Application No. 2002-0073728 (protein, UniProt P14679 19-529, looked up)
Tyrosinase: HFPRACVSSKNLMEKECCPPWSGDRSPCGQLSGRGSCQNILLSNAPLGPQFPFTGVDDRESWPSVFYNRTCQCSGNFMGFNCGNCKFGFWGPNCTERRLLVRRNIFDLSAPEKDKFFAYLTLAKHTISSDYVIPIGTYGQMKNGSTPMFNDINIYDLFVWMHYYVSMDALLGGSEIWRDIDFAHEAPAFLPWHRLFLLRWEQEIQKLTGDENFTIPYWDWRDAEKCDICTDEYMGGQHPTNPNLLSPASFFSSWQIVCSRLEEYNSHQSLCNGTPEGPLRRNPGNHDKSRTPRLPSSADVEFCLSLTQYESGSMDKAANFSFRNTLEGFASPLTGIADASQSSMHNALHIYMNGTMSQVQGSANDPIFLLHHAFVDSIFEQWLRRHRPLQEVYPEANAPIGHNRESYMVPFIPLYRNGDFFISSKDLGYDYSYLQDSDPDSFQDYIKSYLEQASRIWSWLLGAAMVGAVLTALLAGLVSLLCRHKRKQLPEEKQPLLMEKEDYHSLYQSHL
On to B2, for which the “Purification degree (dopa oxidase specific activity relative to crude extract)” value came to 5 fold in series [2] (setting [9]), 49 fold in series [2] (setting [7]) and 1.0 fold in series [2] (setting [8]). Besides, the entries for the “Specific activity (dopa oxidase)” value in series [2] (setting [9]), in series [2] (setting [7]) and in series [2] (setting [8]) were 69.7 units/mg, 699 units/mg and 14.3 units/mg, respectively. Moreover, the entries for the “Total activity (dopa oxidase)” value in series [2] (setting [9]), in series [2] (setting [7]) and in series [2] (setting [8]) were 4460 units, 1922 units and 5700 units, respectively. The “Increase of specific tyrosine hydroxylase activity of the His-bind purified enzyme compared to the crude extract” value in series [3] is “about 49 times”. The “Specific activity (tyrosine hydroxylase)” value in series [3] (setting [9]) was determined as 11.0 ± 0.12 µmol/mg/h; in series [3] (purification step: His.bind resin chromatography (finally purified)) it was 88.0 ± 1.50 µmol/mg/h; in series [3] (setting [8]), 1.8 ± 0.05 µmol/mg/h. The Michaelis constant (Km) in series [5] (value from previous filing) was 2.34 µM.

B3: Recombinant human tyrosinase of comparative example 1 (pHis-hTyr): Recombinant human tyrosinase produced in E. coli with pHis-hTyr vector by the method of Korean Patent Application No. 2001-0057379 (protein, UniProt P14679 19-529, looked up)
Tyrosinase: HFPRACVSSKNLMEKECCPPWSGDRSPCGQLSGRGSCQNILLSNAPLGPQFPFTGVDDRESWPSVFYNRTCQCSGNFMGFNCGNCKFGFWGPNCTERRLLVRRNIFDLSAPEKDKFFAYLTLAKHTISSDYVIPIGTYGQMKNGSTPMFNDINIYDLFVWMHYYVSMDALLGGSEIWRDIDFAHEAPAFLPWHRLFLLRWEQEIQKLTGDENFTIPYWDWRDAEKCDICTDEYMGGQHPTNPNLLSPASFFSSWQIVCSRLEEYNSHQSLCNGTPEGPLRRNPGNHDKSRTPRLPSSADVEFCLSLTQYESGSMDKAANFSFRNTLEGFASPLTGIADASQSSMHNALHIYMNGTMSQVQGSANDPIFLLHHAFVDSIFEQWLRRHRPLQEVYPEANAPIGHNRESYMVPFIPLYRNGDFFISSKDLGYDYSYLQDSDPDSFQDYIKSYLEQASRIWSWLLGAAMVGAVLTALLAGLVSLLCRHKRKQLPEEKQPLLMEKEDYHSLYQSHL
modifications: His tag
In the case of B3, in series [2] (setting [9]), the “Purification degree (dopa oxidase specific activity relative to crude extract)” value was determined as 3.5 fold, the “Specific activity (dopa oxidase)” value was found to be 1.4 units/mg and the “Total activity (dopa oxidase)” value is reported as 64 units. In addition, in series [2] (setting [7]), the “Purification degree (dopa oxidase specific activity relative to crude extract)” value was found to be 65.0 fold, the “Specific activity (dopa oxidase)” value was found to be 26.0 units/mg and the “Total activity (dopa oxidase)” value is given as 26 units. Besides, in series [2] (setting [8]), the “Purification degree (dopa oxidase specific activity relative to crude extract)” value was found to be 1.0 fold, the “Specific activity (dopa oxidase)” value came out at 0.4 units/mg and the “Total activity (dopa oxidase)” value was 136 units. The Michaelis constant (Km) in series [5] (value from previous filing or literature) was 170 µM.

B4: purified tyrosinase from human HeLa cell: Tyrosinase purified from human HeLa cell (Spritz et al., 1997) (protein, UniProt P14679 19-529, looked up)
Tyrosinase: HFPRACVSSKNLMEKECCPPWSGDRSPCGQLSGRGSCQNILLSNAPLGPQFPFTGVDDRESWPSVFYNRTCQCSGNFMGFNCGNCKFGFWGPNCTERRLLVRRNIFDLSAPEKDKFFAYLTLAKHTISSDYVIPIGTYGQMKNGSTPMFNDINIYDLFVWMHYYVSMDALLGGSEIWRDIDFAHEAPAFLPWHRLFLLRWEQEIQKLTGDENFTIPYWDWRDAEKCDICTDEYMGGQHPTNPNLLSPASFFSSWQIVCSRLEEYNSHQSLCNGTPEGPLRRNPGNHDKSRTPRLPSSADVEFCLSLTQYESGSMDKAANFSFRNTLEGFASPLTGIADASQSSMHNALHIYMNGTMSQVQGSANDPIFLLHHAFVDSIFEQWLRRHRPLQEVYPEANAPIGHNRESYMVPFIPLYRNGDFFISSKDLGYDYSYLQDSDPDSFQDYIKSYLEQASRIWSWLLGAAMVGAVLTALLAGLVSLLCRHKRKQLPEEKQPLLMEKEDYHSLYQSHL
Take B4: the “Specific activity with respect to tyrosine hydroxylase activity” value in series [6] is 22.3±0.01 μmol/1 g/h.

The values above are taken from patent US20080124758A1, “Transmembrane domain removed recombinant human tyrosinase and method of producing the same” (Chung-Ang University Industry-Academy Cooperation Foundation, priority 2006, published 2008).
